Test results taken from patent publication US20080199426.

Tested on: Hirudin (Calbiochem 377853)

## thrombin activated from 10% human plasma on HUVEC monolayers
  cleavage of the chromogenic thrombin substrate (absorbance at 405 nm): completely blocked the cleavage of the chromogenic thrombin substrate
